From patent publication US20210122826A1 (MIT, published 2021)
Residue numbers refer to the chain shown, from its start. One block for each binder: values may come before it.

Assays:
Test in all cases: flow, Jurkat, 100 nM Ab
[1] = target: T1, Human Clec12B (human, UniProt Q2HXU8 1-276)
T1 construct: also called hClec12B
T1 sequence: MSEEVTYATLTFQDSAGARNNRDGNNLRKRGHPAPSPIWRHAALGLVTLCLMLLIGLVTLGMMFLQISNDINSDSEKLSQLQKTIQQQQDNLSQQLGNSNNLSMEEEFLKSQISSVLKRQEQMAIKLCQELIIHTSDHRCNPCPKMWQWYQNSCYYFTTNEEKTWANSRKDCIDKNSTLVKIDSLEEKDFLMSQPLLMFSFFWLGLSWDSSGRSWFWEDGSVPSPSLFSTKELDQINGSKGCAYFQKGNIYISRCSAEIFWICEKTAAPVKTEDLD

[2] = target: T2, Human OLR1 (human, UniProt P78380 1-273)
T2 construct: also called hOLR1

[3] = target: T3, Human Clec7A (human, UniProt Q9BXN2 1-247)
T3 construct: also called hClec7A
T3 sequence: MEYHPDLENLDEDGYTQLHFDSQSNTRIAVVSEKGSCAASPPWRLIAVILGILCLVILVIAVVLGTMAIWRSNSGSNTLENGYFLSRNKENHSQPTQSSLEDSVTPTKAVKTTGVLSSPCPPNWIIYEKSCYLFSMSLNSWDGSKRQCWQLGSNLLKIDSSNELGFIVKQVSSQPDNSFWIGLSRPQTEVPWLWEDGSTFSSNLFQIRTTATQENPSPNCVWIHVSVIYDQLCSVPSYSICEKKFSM

[4] = target: T4, Human Clec5A (human, UniProt Q9NY25 1-188)
T4 construct: also called hClec5A
T4 sequence: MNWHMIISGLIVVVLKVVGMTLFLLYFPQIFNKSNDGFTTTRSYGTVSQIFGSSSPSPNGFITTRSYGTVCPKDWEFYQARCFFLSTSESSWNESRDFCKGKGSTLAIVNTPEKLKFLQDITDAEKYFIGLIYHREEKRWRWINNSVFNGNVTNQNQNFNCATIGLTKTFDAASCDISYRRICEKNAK

[5] = target: T5, cynomolgus CD161 (cynomolgus)
T5 construct: UniProt A0A2K5WYI1; also called cynoCD161
T5 chain: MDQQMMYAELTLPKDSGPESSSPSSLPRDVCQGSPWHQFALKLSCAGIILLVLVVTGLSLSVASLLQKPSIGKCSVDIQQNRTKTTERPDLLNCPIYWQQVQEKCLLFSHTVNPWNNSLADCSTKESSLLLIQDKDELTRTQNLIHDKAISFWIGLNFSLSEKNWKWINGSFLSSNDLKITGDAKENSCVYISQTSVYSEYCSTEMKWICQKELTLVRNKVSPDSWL

[6] = target: T6, Human Clec10A (human, UniProt Q8IUN9 1-316)
T6 construct: also called hClec10A
T6 sequence: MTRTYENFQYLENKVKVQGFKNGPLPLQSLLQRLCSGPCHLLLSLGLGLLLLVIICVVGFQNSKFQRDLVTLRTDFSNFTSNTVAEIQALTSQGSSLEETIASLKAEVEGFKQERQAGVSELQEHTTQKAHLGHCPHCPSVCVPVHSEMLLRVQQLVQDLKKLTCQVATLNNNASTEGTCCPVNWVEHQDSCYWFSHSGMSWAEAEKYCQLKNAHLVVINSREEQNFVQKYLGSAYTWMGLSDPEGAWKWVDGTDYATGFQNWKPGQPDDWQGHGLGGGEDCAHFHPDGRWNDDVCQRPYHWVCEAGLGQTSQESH

[7] = target: T7, human CD161 (human, UniProt Q12918 1-225)
T7 construct: UniProt Q12918; also called hCD161; KLRB1

[8] = target: T8, Human Clec4E (human, UniProt Q9ULY5 1-219)
T8 construct: also called hClec4E
T8 sequence: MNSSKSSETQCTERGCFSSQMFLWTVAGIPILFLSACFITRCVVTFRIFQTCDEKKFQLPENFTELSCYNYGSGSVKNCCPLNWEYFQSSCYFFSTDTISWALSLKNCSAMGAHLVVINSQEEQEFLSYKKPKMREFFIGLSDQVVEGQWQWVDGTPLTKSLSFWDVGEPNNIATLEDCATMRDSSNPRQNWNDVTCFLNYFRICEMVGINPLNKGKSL

[9] = target: T9, Human KLRF2 (human, UniProt D3W0D1 1-207)
T9 construct: also called hKLRF2
T9 sequence: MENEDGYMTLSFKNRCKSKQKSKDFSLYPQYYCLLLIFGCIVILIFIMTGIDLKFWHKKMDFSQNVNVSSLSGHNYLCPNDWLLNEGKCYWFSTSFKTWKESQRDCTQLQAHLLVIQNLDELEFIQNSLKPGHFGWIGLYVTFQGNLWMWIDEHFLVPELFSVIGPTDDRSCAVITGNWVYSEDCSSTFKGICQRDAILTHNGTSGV

[10] = target: T10, Human Clec9A (human, UniProt Q6UXN8 1-241)
T10 construct: also called hClec9A
T10 sequence (Q6UXN8 whole entry): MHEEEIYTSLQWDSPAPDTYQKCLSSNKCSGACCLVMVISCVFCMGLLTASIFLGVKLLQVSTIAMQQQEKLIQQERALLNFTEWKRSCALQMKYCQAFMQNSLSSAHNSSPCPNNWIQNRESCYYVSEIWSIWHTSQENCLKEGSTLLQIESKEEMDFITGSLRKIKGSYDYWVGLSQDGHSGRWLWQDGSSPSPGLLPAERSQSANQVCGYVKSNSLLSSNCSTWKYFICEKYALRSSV

[11] = target: T11, Human KLRG1 (human, UniProt Q96E93 1-195)
T11 construct: also called hKLRG1
T11 sequence: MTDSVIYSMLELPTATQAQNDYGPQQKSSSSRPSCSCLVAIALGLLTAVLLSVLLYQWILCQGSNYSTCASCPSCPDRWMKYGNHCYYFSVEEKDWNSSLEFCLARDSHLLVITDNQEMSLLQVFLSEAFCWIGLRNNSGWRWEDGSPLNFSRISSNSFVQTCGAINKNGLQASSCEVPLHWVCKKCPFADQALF

B2: KW1.2.1 (antibody, V domains shown)
VH: EVQLVESGGGLVQPGGSLRLSCAASGSTFSSYAMSWVRQAPGKGLEWVSTISGSGGSTYYADSVKGRFTISRDNSRNTLYLQMNSLRAEDTAVYYCARGGLIPSGFDYWGQGTLVTVSS
VL: DIQMTQSPSSPSASVGDRVTITCRASQSISSYLNWYQQKPGKAPKLLIYAASSLLSGVPSRFSGSGSGTDFTLTISSLQPEDFATYYCQQTYSTPLTFGQGTKVEIK
MFI normalized to WT [1]: 1.11 | MFI normalized to WT [2]: 1.28 | MFI normalized to WT [3]: 1.25 | MFI normalized to WT [4]: 1.13 | MFI normalized to WT [5]: 103 | MFI normalized to WT [6]: 0.94 | MFI normalized to WT [7]: 172 | MFI normalized to WT [8]: 0.99 | MFI normalized to WT [9]: 1.05 | MFI normalized to WT [10]: 1.24 | MFI normalized to WT [11]: 1.24

B3: KM12.2.3 (antibody, human IgG1, V domains shown)
VH: EVQLVESGGGLVQPGGSLRLSCAASGFTFSSYAMSWIRQAPGKGLEWVSAISGSGGSIYYADSVKGRFTISRDNSKNTLYLQMNSLRAEDTAVYYCARGYSDSYFYGPYYTFDYWGQGTLVTVSS
VL: B2 VL with P11L, S28G, L55Q, P59S, T91S, S93N
MFI normalized to WT [1]: 1.33 | MFI normalized to WT [2]: 1.33 | MFI normalized to WT [3]: 1.11 | MFI normalized to WT [4]: 1.41 | MFI normalized to WT [5]: 11.9 | MFI normalized to WT [6]: 1.44 | MFI normalized to WT [7]: 122 | MFI normalized to WT [8]: 1.68 | MFI normalized to WT [9]: 1.37 | MFI normalized to WT [10]: 1.42 | MFI normalized to WT [11]: 1.42

B8: KM12.4.7 (antibody, V domains shown)
VH: B3 VH with S21P, N84D
VL: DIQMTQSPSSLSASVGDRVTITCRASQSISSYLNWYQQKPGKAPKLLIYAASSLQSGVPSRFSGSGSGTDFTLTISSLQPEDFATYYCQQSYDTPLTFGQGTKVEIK
MFI normalized to WT [1]: 1.12 | MFI normalized to WT [2]: 1.3 | MFI normalized to WT [3]: 1.36 | MFI normalized to WT [4]: 1.31 | MFI normalized to WT [5]: 116 | MFI normalized to WT [6]: 1.01 | MFI normalized to WT [7]: 166 | MFI normalized to WT [8]: 1.01 | MFI normalized to WT [9]: 1.13 | MFI normalized to WT [10]: 1.17 | MFI normalized to WT [11]: 1.25

Results, then the binder that gave them:

MFI normalized to WT [1]: 1.09 | MFI normalized to WT [2]: 1.03 | MFI normalized to WT [3]: 1.16 | MFI normalized to WT [4]: 1.12 | MFI normalized to WT [5]: 1.03 | MFI normalized to WT [6]: 0.98 | MFI normalized to WT [7]: 143 | MFI normalized to WT [8]: 0.97 | MFI normalized to WT [9]: 1.03 | MFI normalized to WT [10]: 1.13 | MFI normalized to WT [11]: 1.08
B1: KW17.3.4 (antibody, V domains shown)
VH: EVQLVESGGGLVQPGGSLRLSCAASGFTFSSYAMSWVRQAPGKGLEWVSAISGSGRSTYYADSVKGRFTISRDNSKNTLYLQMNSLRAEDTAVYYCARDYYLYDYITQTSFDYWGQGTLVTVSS
VL: QSVLTQPPSVSGAPGQRVTISCTGSSSNIGAGYDVHWYQQLPGTAPKLLIYGNSNRPSGVPDRFSGSQSGTSASLAITGLQAEDEADYYCQSYNSGHTVFGGGTQLTVL

MFI normalized to WT [1]: 1.05 | MFI normalized to WT [2]: 1.15 | MFI normalized to WT [3]: 1.18 | MFI normalized to WT [4]: 1.08 | MFI normalized to WT [6]: 0.89 | MFI normalized to WT [8]: 0.88 | MFI normalized to WT [9]: 1.03 | MFI normalized to WT [10]: 1.01 | MFI normalized to WT [11]: 1.06
B4: KW7.3.7 (antibody, V domains shown)
VH: B2 VH with S27F, T50A, I51T, V64A, R76K, L101Y, I102L, S104D, G105A, Q111R
VL: B2 VL with P11L, R24W, K39E, L55Q

MFI normalized to WT [1]: 1.1 | MFI normalized to WT [2]: 1.24 | MFI normalized to WT [3]: 1.38 | MFI normalized to WT [4]: 1.19 | MFI normalized to WT [5]: 117 | MFI normalized to WT [6]: 0.9 | MFI normalized to WT [7]: 163 | MFI normalized to WT [8]: 1.17 | MFI normalized to WT [9]: 1.08 | MFI normalized to WT [10]: 1.11 | MFI normalized to WT [11]: 1.25
B5: KW1.3.12 (antibody, human IgG1, V domains shown)
VH: B2 VH with S27F
VL: B2 VL with P11L, T94A

MFI normalized to WT [1]: 0.94 | MFI normalized to WT [2]: 0.9 | MFI normalized to WT [3]: 1.03 | MFI normalized to WT [4]: 0.93 | MFI normalized to WT [5]: 0.89 | MFI normalized to WT [6]: 0.86 | MFI normalized to WT [7]: 150 | MFI normalized to WT [8]: 0.85 | MFI normalized to WT [9]: 0.9 | MFI normalized to WT [10]: 0.94 | MFI normalized to WT [11]: 0.93
B6: KW9.3.3 (antibody, V domains shown)
VH: EVQLVESGGGLVQPGGSLRLSCAASGFTFSSYAMSWVRQAPGKGLEWVSAISGSGGRTYYADSVKGRFTISRDNSKNTLYLQMNSLRAEDTAMYYCARGPGYMYLYGDSFFEYWGQGTLVTVSS
VL: B2 VL with T5A, P11L, S28G, L55Q, S67Y, T91S

MFI normalized to WT [1]: 1.37 | MFI normalized to WT [2]: 1.42 | MFI normalized to WT [3]: 1.46 | MFI normalized to WT [4]: 1.24 | MFI normalized to WT [5]: 108 | MFI normalized to WT [6]: 0.9 | MFI normalized to WT [7]: 145 | MFI normalized to WT [8]: 1.1 | MFI normalized to WT [9]: 1.12 | MFI normalized to WT [10]: 1.42 | MFI normalized to WT [11]: 1.3
B7: KW7.2.2 (antibody, V domains shown)
VH: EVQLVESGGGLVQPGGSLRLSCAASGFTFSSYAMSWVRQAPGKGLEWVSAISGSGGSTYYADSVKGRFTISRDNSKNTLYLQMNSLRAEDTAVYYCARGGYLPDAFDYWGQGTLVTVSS
VL: B2 VL with P11L, K45R, L46F, L55Q
